From article doi:10.1101/2023.07.15.549169

What was measured:
Assay in all cases: AlphaScreen or HTRF
Settings in all cases: remark: other sources report otherwise
[1] = molecular target: T1, His-tagged SMAD4 R361C, Q13485
T1 chain: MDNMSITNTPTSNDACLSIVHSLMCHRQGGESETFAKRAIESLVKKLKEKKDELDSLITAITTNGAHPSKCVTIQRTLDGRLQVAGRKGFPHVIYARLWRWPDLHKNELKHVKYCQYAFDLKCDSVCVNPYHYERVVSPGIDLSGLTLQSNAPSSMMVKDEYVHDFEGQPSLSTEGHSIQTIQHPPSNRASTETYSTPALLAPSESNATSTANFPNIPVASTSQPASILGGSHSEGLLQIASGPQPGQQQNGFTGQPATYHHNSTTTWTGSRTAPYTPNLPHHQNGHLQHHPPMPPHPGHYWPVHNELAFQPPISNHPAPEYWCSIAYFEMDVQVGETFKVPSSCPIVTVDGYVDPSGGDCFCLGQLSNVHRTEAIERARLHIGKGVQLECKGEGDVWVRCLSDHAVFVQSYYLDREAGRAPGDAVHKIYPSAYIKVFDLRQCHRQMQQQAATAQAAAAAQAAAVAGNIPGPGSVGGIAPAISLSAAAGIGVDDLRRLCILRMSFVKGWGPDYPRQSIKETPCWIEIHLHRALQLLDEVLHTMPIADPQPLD

[2] = molecular target: T2, His-tagged SMAD4 R361H, Q13485
T2 chain: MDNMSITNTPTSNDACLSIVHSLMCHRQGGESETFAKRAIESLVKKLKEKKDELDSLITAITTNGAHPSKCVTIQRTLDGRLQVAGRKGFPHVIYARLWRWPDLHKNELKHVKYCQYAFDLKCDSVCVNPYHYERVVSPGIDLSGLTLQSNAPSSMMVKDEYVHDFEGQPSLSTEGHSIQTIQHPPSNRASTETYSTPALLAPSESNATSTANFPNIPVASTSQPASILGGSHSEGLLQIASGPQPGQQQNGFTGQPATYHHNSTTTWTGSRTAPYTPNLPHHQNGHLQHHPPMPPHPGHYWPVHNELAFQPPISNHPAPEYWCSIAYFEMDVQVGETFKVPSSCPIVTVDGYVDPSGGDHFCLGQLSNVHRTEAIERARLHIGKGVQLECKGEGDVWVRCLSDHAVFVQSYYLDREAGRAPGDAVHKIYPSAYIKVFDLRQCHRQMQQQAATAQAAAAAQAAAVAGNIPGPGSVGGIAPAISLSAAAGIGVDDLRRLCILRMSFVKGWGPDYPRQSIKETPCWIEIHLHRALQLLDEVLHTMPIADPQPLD

[3] = molecular target: T3, His-tagged SMAD4 WT (Mothers against decapentaplegic homolog 4), Q13485
T3 chain: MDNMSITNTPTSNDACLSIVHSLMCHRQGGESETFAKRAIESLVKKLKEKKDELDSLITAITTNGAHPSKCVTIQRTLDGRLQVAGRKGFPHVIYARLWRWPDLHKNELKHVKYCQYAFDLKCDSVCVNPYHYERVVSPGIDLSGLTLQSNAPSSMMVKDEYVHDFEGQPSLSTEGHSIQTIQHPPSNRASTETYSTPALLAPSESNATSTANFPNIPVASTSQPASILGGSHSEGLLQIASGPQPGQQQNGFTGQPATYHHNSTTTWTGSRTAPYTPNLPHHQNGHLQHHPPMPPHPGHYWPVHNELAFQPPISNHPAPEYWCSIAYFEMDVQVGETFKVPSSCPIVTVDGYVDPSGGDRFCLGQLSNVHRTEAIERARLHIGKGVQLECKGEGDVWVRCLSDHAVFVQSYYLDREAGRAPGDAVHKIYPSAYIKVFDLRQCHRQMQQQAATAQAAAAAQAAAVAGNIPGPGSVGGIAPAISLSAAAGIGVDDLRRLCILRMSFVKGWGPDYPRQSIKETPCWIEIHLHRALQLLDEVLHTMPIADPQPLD

B1: Flag-tagged SMAD3 WT, P84022 1-425 (natural protein)
chain: MSSILPFTPPIVKRLLGWKKGEQNGQEEKWCEKAVKSLVKKLKKTGQLDELEKAITTQNVNTKCITIPRSLDGRLQVSHRKGLPHVIYCRLWRWPDLHSHHELRAMELCEFAFNMKKDEVCVNPYHYQRVETPVLPPVLVPRHTEIPAEFPPLDDYSHSIPENTNFPAGIEPQSNIPETPPPGYLSEDGETSDHQMNHSMDAGSPNLSPNPMSPAHNNLDLQPVTYCEPAFWCSISYYELNQRVGETFHASQPSMTVDGFTDPSNSERFCLGLLSNVNRNAAVELTRRHIGRGVRLYYIGGEVFAECLSDSAIFVQSPNCNQRYGWHPATVCKIPPGCNLKIFNNQEFAALLAQSVNQGFEAVYQLTRMCTIRMSFVKGWGAEYRRQTVTSTPCWIELHLNGPLQWLDKVLTQMGSPSIRCSSVS
[1]
  reduction of the PPI signal against SMAD4 WT: 75%
[2]
  reduction of the PPI signal against SMAD4 WT: 75%
[3]
  decrease of the PPI signal with 5'-FAM-SBE4 Mut dsDNA against WT dsDNA: 15%
